These results are taken from US20240141069A1 (SHANGHAI JEMINCARE PHARMACEUTICAL, published 2024).

In assay [1] the target is T1, recombinant human MASP-2 protein hMASP2-D456 (human, UniProt O00187 287-686). The assay can be described thus: Octet RED96e BLI, antibody captured on AHC sensor, antigen 30 nM, 1:1 fit. The method, then:
(§1) Affinities of candidate antibodies JYB1931A63 and JYB1931A13 to human hMASP2-D456 (KACTUS, batch number: 080203), cynomolgus monkey cMASP2-D456 (KACTUS, batch number: 030301), and mouse mMASP2-D456 (KACTUS, batch number: 030401) were measured by Octet RED96e (Fortebio). The antigen and antibody were diluted with 1×PBST (1×PBS: Sangon, B548117-0500; 0.02% Tween 20: sigma-aldrich, P1379) at a concentration of 30 nM for the antigen and a concentration of 5 μg/mL for the antibody.
(§2) First, the sample was added to a 96-well plate (Greiner bio-one, 655209) with a system of 200 μL/well. Then, software parameters were set, the temperature of the plate was set to 30° C., and the frequency for collecting standard dynamic signals was 5.0 Hz. Next, an AHC sensor (Fortebio, article number: 18-0015) was pre-wet with 1×PBST for 10 minutes, and then data were acquired. Each cycle included the following steps: 1) immersing the sensor in a buffer solution for 60 seconds; 2) detecting whether the antigen had non-specific binding with the sensor; 3) regenerating the sensor with 10 mM pH 1.7 glycine solution; 4) immersing the sensor in the buffer solution for 60 seconds; 5) immobilizing the antibody on the sensor for 60 seconds; 6) immersing the sensor in the buffer solution for 180 seconds; 7) binding the antigen and the antibody for 180 seconds; 8) dissociating the antigen and the antibody for 5 minutes; and 9) regenerating the sensor.
(§3) A binding rate (Ka) and a dissociation rate (Kd) in a 1:1 antigen-antibody binding manner were measured by Fortebio's Data Analysis 12.0 software to calculate an equilibrium dissociation constant (KD) of the antibody.
Background: In BLI a coated tip is dipped into the sample, and binding shifts an interference pattern.

The target in assay [2] is T2, cynomolgus monkey MASP-2 cMASP2-D456 (cynomolgus monkey).
T2 construct: Made by the same method as hMASP2-D456
Described as above. The method, then:
as §1, §2, §3

Assay [3] addresses T3, mouse MASP-2 mMASP2-D456 (mouse, UniProt Q91WP0 287-685).
T3 construct: Made by the same method as hMASP2-D456
The assay can be described thus: Octet RED96e BLI, antibody captured on AHC sensor, antigen in solution. Here is the method: as §1
First, the sample was added to a 96-well plate (Greiner bio-one, 655209) with a system of 200 μL/well. Then, software parameters were set, the temperature of the plate was set to 30° C., and the frequency for collecting standard dynamic signals was 5.0 Hz. Next, an AHC sensor (Fortebio, article number: 18-0015) was pre-wet with 1×PBST for 10 minutes, and then data were acquired. […]
as §3

Assay [4] deals with T1, recombinant human MASP-2 protein …. In words: ELISA on plate-coated hMASP2-D456, detection with HRP secondary antibody, OD450/630nm; unit taken from the axis 'Antibody nM (Ig)'. Here is the method:
(§4) The hMASP2-D456 was diluted to 1.0 μg/mL and 0.5 μg/mL with a carbonate buffer solution (CBS), each added to a high binding transparent polystyrene 96-well plate (Nunc) with 100 μL/well and wrapped overnight at 4° C. The next day, the ELISA plate was washed twice on an automatic plate washer with a washing buffer (PBS+0.05% Tween 20 (sigma)). 300 μL of blocking buffer (PBS+0.05% Tween 20 (sigma)+1% BSA) was added to each well, and the ELISA plate was sealed at room temperature for 1 hour. Then the ELISA plate was washed twice with the washing buffer on the automatic plate washer, and the monoclonal antibody was diluted with the blocking buffer to 8 gradients. The monoclonal antibody was sequentially added to each well of the ELISA plate and incubated at room temperature for 1 hour, and then the plate was washed 3 times according to the above method. 100 μL of goat anti-mouse HRP (Sigma, article number: M4280) or rabbit anti-rat Fc-HRP (Sigma, article number: A5795) diluted at 1:5000 in the blocking buffer was added to each well. Incubation was performed at room temperature for 1 hour, and then the plate was washed 3 times according to the above method. […] The plate was read at 450 nm on a Thermo Multiscan FC. Graphs were drawn with Graphpad and EC50 was calculated. […]
A general note: ELISA stands for enzyme-linked immunosorbent assay.

The target in assay [5] is T2, cynomolgus monkey MASP-2 cMASP2-D456. The assay can be described thus: ELISA on plate-coated cMASP2-D456, detection with HRP secondary antibody, OD450/630nm. Here is the method:
as §4, with “The mouse mMASP2-D456 and cynomolgus monkey cMASP2-D456 were diluted to” for “The hMASP2-D456 was diluted to”, “carbonate buffer solution, each added” for “carbonate buffer solution (CBS), each added”, “monoclonal antibody 50A6 was diluted” for “monoclonal antibody was diluted”, “buffer to 15.0 μg/mL at 11 gradients. The” for “buffer to 8 gradients. The”, “at 1:5000 with the blocking” for “at 1:5000 in the blocking”

In assay [6] the target is T1, recombinant human MASP-2 protein …. In words: ELISA on plate-coated hMASP2-D456, detection with HRP secondary antibody, OD450/630nm; unit taken from the axis 'Antibody pM (Ig)'. The method, then:
as §4

In assay [7] the target is T3, mouse MASP-2 mMASP2-D456. In words: ELISA on plate-coated mMASP2-D456, OD450/630nm. The method, then: as §4, with “The mouse mMASP2-D456 and cynomolgus monkey cMASP2-D456 were diluted to” for “The hMASP2-D456 was diluted to”, “carbonate buffer solution, each added” for “carbonate buffer solution (CBS), each added”, “monoclonal antibody 50A6 was diluted” for “monoclonal antibody was diluted”, “buffer to 15.0 μg/mL at 11 gradients. The” for “buffer to 8 gradients. The”, “at 1:5000 with the blocking” for “at 1:5000 in the blocking”

Assay [8] deals with T2, cynomolgus monkey MASP-2 cMASP2-D456. The assay can be described thus: ELISA on plate-coated cMASP2-D456, detection with HRP secondary antibody, OD450/630nm; unit taken from the axis 'Antibody pM (Ig)'. Here is the method: as §4, with “The mouse mMASP2-D456 and cynomolgus monkey cMASP2-D456 were diluted to” for “The hMASP2-D456 was diluted to”, “carbonate buffer solution, each added” for “carbonate buffer solution (CBS), each added”, “monoclonal antibody 50A6 was diluted” for “monoclonal antibody was diluted”, “buffer to 15.0 μg/mL at 11 gradients. The” for “buffer to 8 gradients. The”, “at 1:5000 with the blocking” for “at 1:5000 in the blocking”

T3 sequence (Q91WP0 other isoform, or with tags, fused parts or gaps limits assumed): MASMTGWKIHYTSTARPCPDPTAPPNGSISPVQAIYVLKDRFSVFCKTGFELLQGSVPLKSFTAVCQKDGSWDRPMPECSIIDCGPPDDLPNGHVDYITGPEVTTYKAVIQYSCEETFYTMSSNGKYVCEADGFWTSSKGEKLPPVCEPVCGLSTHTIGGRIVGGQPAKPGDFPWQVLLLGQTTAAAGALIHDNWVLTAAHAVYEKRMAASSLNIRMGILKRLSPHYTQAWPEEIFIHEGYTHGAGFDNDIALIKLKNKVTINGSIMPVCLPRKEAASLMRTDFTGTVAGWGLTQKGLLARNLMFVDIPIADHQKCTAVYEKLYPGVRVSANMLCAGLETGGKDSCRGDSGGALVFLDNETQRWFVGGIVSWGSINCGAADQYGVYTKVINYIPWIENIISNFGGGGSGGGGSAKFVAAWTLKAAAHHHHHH
T2 sequence (chain, as listed by the source limits assumed): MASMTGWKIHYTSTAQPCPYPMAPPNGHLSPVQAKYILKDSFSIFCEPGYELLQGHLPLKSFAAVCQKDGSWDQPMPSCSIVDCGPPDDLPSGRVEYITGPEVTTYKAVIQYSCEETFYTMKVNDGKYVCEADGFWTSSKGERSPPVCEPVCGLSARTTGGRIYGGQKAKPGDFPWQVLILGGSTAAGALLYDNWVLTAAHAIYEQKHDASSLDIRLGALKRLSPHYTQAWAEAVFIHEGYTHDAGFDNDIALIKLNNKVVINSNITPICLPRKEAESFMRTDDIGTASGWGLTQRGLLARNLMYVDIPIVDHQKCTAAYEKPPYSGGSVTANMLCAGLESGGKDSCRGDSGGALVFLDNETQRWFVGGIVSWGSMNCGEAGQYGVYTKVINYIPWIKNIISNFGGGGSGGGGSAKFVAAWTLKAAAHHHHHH
T1 sequence (O00187 other isoform, or with tags, fused parts or gaps limits assumed): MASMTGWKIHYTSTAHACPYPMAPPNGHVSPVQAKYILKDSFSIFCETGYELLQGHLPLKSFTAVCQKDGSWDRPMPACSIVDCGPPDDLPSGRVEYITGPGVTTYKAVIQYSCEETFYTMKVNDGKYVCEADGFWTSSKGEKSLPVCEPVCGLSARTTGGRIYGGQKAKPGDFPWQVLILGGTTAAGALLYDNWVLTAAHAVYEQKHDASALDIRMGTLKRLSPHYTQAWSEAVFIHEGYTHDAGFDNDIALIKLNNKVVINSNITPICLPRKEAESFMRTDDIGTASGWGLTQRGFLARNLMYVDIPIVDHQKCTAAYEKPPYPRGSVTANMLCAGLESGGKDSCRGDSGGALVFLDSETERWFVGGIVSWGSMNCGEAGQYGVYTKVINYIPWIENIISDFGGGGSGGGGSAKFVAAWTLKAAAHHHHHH

B1: humanized anti-MASP-2 antibody JYB1931A63 (antibody, V domains shown)
VH: EVQLVESGGGLVQPGGSLRLSCAASGFTFNDYNMAWVRQAPGKGLEWVATILFDGSRTYYRDSVKGRFTISRDNAKNSLYLQMNSLRAEDTAVYYCSTESPYYSEGYYQGYFDYWGQGTLVTVSS
VL: EIVLTQSPATLSLSPGERATLSCRASQSVSTSIHWYQQKPGQAPRLLIKYASRSISGIPARFSGSGSGTDFTLTISSLEPEDFAVYYCQQSYSSLYTFGQGTKLEIK
notes: Humanized from 50A6 and expressed in ExpiCHO as a full antibody; captured on an AHC (anti-human Fc) sensor
In general, Kd refers to a measure of binding affinity in units of concentration. Consider B1, for which the values for the Kd in assay [1] and in assay [2] were 0.335 nM and 1.31 nM, respectively. The binding result in assay [3] was “no binding (tested: 30 nM antigen)”.

B2: mouse anti-human MASP-2 monoclonal antibody 47A1 (antibody, V domains shown)
VH: DVQLQESGPGLVKPSQSLSLTCTVTGYSITSDYAWNWIRQFPGNKLEWMGYISYSGRTSYNPSLKSRISITRNTSTNQFFLQLNSVTTEDTATYFCARYWGDYWGQGTTLTVSS
VL: DIVMTQSQKFMSTSVGDRVSVTCKASQNVGSNVAWFQQKPGQSPKPLIYSASYRYSGVPDRFTGSGSGTDFTLTISNVQSEDLAEYFCHQYNTYPLTFGAGTKLELN
notes: Mouse hybridoma monoclonal antibody purified from serum-free culture and detected with anti-mouse HRP; the mouse constant regions are not; also called 47A1 antibody
A word on the EC50: it is the concentration at which the effect is half-maximal. By EC50 (read off the curve) is commonly meant the midpoint of the concentration-response curve. As to B2, the EC50 in assay [4] turned out to be 0.333 nM. Further, in assay [5], the “EC50 (read off the curve)” value is around 0.6 nM.

B3: rat anti-human MASP-2 monoclonal antibody 50A6 (antibody, V domains shown)
VH: EVQLVESGGGLVQPGRSLSLSCAASGFTFNDYNMAWVRQTPKKGLEWVATILFDGSRTYYRDSVKGRFTISRENAKSTLYLQMDSLRSEDTATYYCSTESPYYSEGYYQGYFDYWGQGVMVTVSS
VL: NIVLTQSPATLSVTPGESVSLSCRASQSVSTSIHWYQQRSNESPRLLIKYASRSISGIPSRFSGSGSGTDFTLSINRVESEDFSIYYCQQSYSSLYTFGAGTKLELR
notes: Rat hybridoma monoclonal antibody purified from serum-free culture and detected with anti-rat Fc-HRP; the rat constant regions are not; also called 50A6 antibody
In the case of B3, the EC50 in assay [6] is 0.0933 nM; in assay [8], 0.067 nM. Moreover, the binding result in assay [7] is on record as “no binding”.

B4: humanized anti-MASP-2 antibody JYB1931A13 (antibody, V domains shown)
VH: QVQLQESGPGLVKPSQTLSLTCTVSGYSITSDYAWNWIRQPPGKGLEWIGYISYSGRTSYNPSLKSRVTISRDTSKNQFSLKLSSVTAADTAVYYCARYWGDYWGQGTLVTVSS
VL: DIQMTQSPSSLSASVGDRVTITCKASQNVGSNVAWFQQKPGKAPKPLIYSASYRYSGVPSRFSGSGSGTDFTLTISSLQPEDFATYFCHQYNTYPLTFGGGTKVEIK
notes: Humanized from 47A1 and expressed in ExpiCHO as a full antibody; captured on an AHC (anti-human Fc) sensor
Turning to B4, the Kd was determined as 1.17 nM in assay [1] and 0.305 nM in assay [2]. Also, in assay [3], the binding result is “no binding (tested: 30 nM antigen)”.
